Where two headings read alike, the source gives them in different places. One block for each binder: values may come before it.
Experiments:
[1] = target: T1, Human 4-1BB recombinant protein (Sinobiological, Cat #10041-H08H) (human, UniProt Q07011 24-186); assay: ELISA on plate-coated human 4-1BB (25 ng/well), HRP anti-human IgG F(ab')2 detection, OD450; EC50 table under the curve, unit taken from the axis 'Antibody Conc [nM]'
T1 construct: Bought recombinant protein

[2] = target: T2, Human 4-1BB expressed on HEK293-NFκB-Luc-human 4-1BB cells (human, UniProt Q07011 24-255); assay: cell-based or functional assay
[3] = target: T3, Human HVEM (Sinobiological, Cat #10334-H03H) (human, UniProt Q92956 39-202); assay: ELISA, antigen coated at 25 ng/well
T3 sequence (looked up): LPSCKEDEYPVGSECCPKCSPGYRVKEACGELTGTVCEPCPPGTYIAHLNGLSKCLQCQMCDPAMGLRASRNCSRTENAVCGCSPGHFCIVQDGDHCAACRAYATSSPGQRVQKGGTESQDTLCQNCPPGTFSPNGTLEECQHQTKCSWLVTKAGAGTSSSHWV

[4] = target: T4, Human OX40 (Sinobiological, Cat #10481-H08H) (human, UniProt P43489 29-216); assay: ELISA, antigen coated at 25 ng/well
T4 sequence (looked up): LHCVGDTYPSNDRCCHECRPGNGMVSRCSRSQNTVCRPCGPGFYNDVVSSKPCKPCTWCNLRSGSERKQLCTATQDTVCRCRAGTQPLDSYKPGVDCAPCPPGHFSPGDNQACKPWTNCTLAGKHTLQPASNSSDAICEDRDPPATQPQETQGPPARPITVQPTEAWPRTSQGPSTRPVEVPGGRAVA

[5] = target: T5, Human CD27 (Sinobiological, Cat #10039-H31H) (human, UniProt P26842 20-192); assay: ELISA, antigen coated at 25 ng/well
T5 sequence (looked up): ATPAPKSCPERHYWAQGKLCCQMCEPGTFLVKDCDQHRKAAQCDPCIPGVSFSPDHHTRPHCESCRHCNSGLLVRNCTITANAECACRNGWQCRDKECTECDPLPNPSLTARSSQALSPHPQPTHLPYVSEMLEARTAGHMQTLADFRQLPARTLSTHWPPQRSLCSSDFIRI

[6] = target: Human CD40 (Sinobiological, Cat #10774-H08H) (human, UniProt P25942 21-193); assay: ELISA, antigen coated at 25 ng/well
[7] = target: T6, Human GITR (Sinobiological, Cat #13643-H08H) (human, UniProt Q9Y5U5 26-161); assay: ELISA, antigen coated at 25 ng/well
T6 sequence (looked up): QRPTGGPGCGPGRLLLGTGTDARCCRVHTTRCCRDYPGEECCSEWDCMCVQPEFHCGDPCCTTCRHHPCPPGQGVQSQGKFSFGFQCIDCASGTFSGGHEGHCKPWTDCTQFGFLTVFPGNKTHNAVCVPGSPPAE

[8] = target: T2, Human 4-1BB expressed on …; assay: cell-based or functional assay; remark: listed apart in the source
[9] = target: T1, Human 4-1BB recombinant protein …; assay: ELISA on plate-coated human 4-1BB (25 ng/well), HRP anti-human IgG F(ab')2 detection, OD450; EC50 table under the curve, unit taken from the axis 'Antibody Conc [nM]'; remark: listed apart in the source
[10] = target: T2, Human 4-1BB expressed on …; assay: cell-based or functional assay; remark: listed apart in the source
[11] = target: T1, Human 4-1BB recombinant protein …; assay: ELISA on plate-coated human 4-1BB (25 ng/well), HRP anti-human IgG F(ab')2 detection, OD450-620; EC50 table under the curve, unit taken from the axis 'Antibody Conc [nM]'
[12] = target: T2, Human 4-1BB expressed on …; assay: cell-based or functional assay; remark: listed apart in the source
[13] = target: T2, Human 4-1BB expressed on …; assay: cell-based or functional assay; remark: listed apart in the source
[14] = target: T7, Human 4-1BB, human Fc tag protein (Hu4-1BB-hFc) (human); assay: ELISA, Hu4-1BB-hFc coated, antibody 6.65 nM to 0.009 nM
T7 construct: also called Hu4-1BB-huFc; human 4-1BB proteins

[15] = target: T1, Human 4-1BB recombinant protein …; assay: BLI (ForteBio Octet RED 96), antibody on AHC sensors, human 4-1BB as analyte, 1:1 model
[16] = target: T2, Human 4-1BB expressed on …; assay: cell-based or functional assay; remark: listed apart in the source
[17] = target: T1, Human 4-1BB recombinant protein …; assay: ELISA on plate-coated human 4-1BB (25 ng/well), HRP anti-human IgG F(ab')2 detection, OD450; EC50 table under the curve, unit taken from the axis 'Antibody Conc [nM]'; remark: listed apart in the source
[18] = target: T2, Human 4-1BB expressed on …; assay: cell-based or functional assay; remark: listed apart in the source

T2 sequence (Q07011 24-255 limits assumed): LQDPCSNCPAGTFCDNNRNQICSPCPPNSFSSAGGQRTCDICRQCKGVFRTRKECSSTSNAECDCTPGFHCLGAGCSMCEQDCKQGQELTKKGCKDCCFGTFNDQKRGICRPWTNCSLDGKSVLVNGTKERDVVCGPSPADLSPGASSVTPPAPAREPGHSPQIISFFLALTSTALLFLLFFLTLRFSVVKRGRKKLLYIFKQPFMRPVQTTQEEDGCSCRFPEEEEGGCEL
Sequence of Human CD40 (Sinobiological, Cat #10774-H08H) (P25942 21-193 limits assumed): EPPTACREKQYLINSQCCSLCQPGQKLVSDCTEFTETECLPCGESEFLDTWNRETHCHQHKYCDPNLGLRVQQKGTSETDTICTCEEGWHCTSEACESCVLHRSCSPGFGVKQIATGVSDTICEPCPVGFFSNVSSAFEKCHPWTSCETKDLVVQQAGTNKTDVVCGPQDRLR
T7 sequence (chain, as listed by the source limits assumed): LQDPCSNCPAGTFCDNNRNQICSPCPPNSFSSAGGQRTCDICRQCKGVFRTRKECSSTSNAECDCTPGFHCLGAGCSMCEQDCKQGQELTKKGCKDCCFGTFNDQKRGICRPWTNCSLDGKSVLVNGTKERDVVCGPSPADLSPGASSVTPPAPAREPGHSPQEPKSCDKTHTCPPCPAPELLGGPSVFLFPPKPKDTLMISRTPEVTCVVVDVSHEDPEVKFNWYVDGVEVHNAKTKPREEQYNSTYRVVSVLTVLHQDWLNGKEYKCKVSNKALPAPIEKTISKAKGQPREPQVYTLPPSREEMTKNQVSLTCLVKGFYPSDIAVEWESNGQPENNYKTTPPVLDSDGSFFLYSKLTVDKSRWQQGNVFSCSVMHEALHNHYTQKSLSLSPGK

B1: 41BB-9-IgG2 (antibody, V domains shown)
VH: QVQLVQSGAEVKKPGSSVKVSCKASGGTFSSYAISWVRQAPGQGLEWMGGIIPISGAVNYAQKFQGRVTITADESTSTAYMELSSLRSEDTAVYYCARDQFIKYYDFSSGYFPNGFDIWGKGTLVTVSS
VL: QTVVTQPPSVSVSPGQTASITCSGDKLGDKYAAWYQQKPGQSPVLVIYQDTVRPSGIPERFSGSNSGNTATLTISGTQAMDEADYYCQTWVSSTGVFGTGTKVTVLG
notes: Full antibody, IgG2 / lambda
EC50 [1]: 0.134 nM
EC50, NFκB-luciferase reporter (RLUs) in HEK293-NFκB-Luc-4-1BB cells, with crosslink (goat anti-human IgG) [2]: 3.24 nM
binding result [3]: no binding (tested: 500 ng/mL)
binding result [4]: no binding (tested: 500 ng/mL)
binding result [5]: no binding (tested: 500 ng/mL)
binding result [6]: no binding (tested: 500 ng/mL)
binding result [7]: no binding (tested: 500 ng/mL)
EC50, NFκB-luciferase reporter (RLUs) in HEK293-NFκB-Luc-4-1BB cells, without crosslink [8]: 16.6 nM

B2: 41BB-27-IgG2 (antibody, V domains shown)
VH: QVQLQESGPGPVKPSETLSLTCAVSGGSISSSHWWSWVRQPPGKGLEWIGEIYHSGRTYYNPSLKSRVTISVDTSRNQFSLKLSSVTAADTAVYYCAREDGGIMDVWGQGTLVTVSS
VL: LSSELTQDPAVSVALGQTVRITCQGDSLRRFYASWYQQKPGQAPVLVIYGKNNRPSGIPDRFSASDSGNTASLTITGAQAEDEADYYCSSRDRSGYRWVFGGGTKVTVLG
notes: Full antibody, IgG2 / lambda
EC50 [9]: 0.05 nM
EC50, NFκB-luciferase reporter (RLUs) in HEK293-NFκB-Luc-4-1BB cells, without crosslink [10]: 35.9 nM
binding result [3]: no binding (tested: 500 ng/mL)
binding result [4]: no binding (tested: 500 ng/mL)
binding result [5]: no binding (tested: 500 ng/mL)
binding result [6]: no binding (tested: 500 ng/mL)
binding result [7]: no binding (tested: 500 ng/mL)

B3: 41BB-2-IgG2 (antibody, V domains shown)
VH: QVQLQESGGGLVQPGGSLRLSCAVSGFTFSSYAMHWVRQAPGKGLEWVAVISYDGSKKWYADSVKGRFTISRDNSKNTLYLQMNSLRAEDTAVYYCARNQGSGSYLYYYYMDVWGKGTTVTVSS
VL: QSALTQPRSVSGSPGQSVTISCTGTSSDVGGYNYVSWYQQLPGKAPKVIIYEVSNRPSGVSNRFSGSKSGNTASLTISGVQSEDEADYYCSSYTSSSTFYVFGTGTQLTVLS
notes: Full antibody; VH joined to the IgG2 constant region, VL to the lambda constant region
EC50 [11]: 0.622 nM
EC50, NFκB-luciferase reporter (RLUs) in HEK293-NFκB-Luc-4-1BB cells, with crosslink (goat anti-human IgG) [12]: 6.21 nM
EC50, NFκB-luciferase reporter (RLUs) in HEK293-NFκB-Luc-4-1BB cells, without crosslink [10]: 56.1 nM
binding result [3]: no binding (tested: 500 ng/mL)
binding result [4]: no binding (tested: 500 ng/mL)
binding result [5]: no binding (tested: 500 ng/mL)
binding result [6]: no binding (tested: 500 ng/mL)
binding result [7]: no binding (tested: 500 ng/mL)
EC50, NFκB-luciferase reporter (RLUs) in HEK293-NFκB-Luc-4-1BB cells, without crosslink [13]: 47.4 nM

More lines, now with the values ahead:

EC50 [14]: 0.113 nM
B4: P4B-2 (bispecific antibody, human IgG1, kappa, L234A L235A)
heavy: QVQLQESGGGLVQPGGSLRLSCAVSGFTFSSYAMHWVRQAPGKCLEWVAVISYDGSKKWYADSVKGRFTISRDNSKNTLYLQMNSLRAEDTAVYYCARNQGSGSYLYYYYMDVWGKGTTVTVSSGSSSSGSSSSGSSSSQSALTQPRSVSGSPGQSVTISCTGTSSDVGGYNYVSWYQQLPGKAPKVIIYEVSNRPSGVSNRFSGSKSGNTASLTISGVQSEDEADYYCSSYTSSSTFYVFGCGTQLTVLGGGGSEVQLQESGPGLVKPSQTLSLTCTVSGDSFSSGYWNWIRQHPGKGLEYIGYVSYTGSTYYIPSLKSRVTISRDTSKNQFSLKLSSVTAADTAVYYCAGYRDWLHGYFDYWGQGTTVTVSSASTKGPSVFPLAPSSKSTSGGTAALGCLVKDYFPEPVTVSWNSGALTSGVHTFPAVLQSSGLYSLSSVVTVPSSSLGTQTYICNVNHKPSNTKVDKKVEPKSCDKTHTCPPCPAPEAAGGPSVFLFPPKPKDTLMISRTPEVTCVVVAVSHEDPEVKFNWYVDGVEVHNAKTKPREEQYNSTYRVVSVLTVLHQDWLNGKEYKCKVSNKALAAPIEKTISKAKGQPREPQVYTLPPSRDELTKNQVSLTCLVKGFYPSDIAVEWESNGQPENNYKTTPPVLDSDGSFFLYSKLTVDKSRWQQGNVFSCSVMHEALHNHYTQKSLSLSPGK
light: DIQMTQSPSSLSASVGDRVTITCKASQNVMDNVAWYQQKPGKAPKRLIYSASYRFSGVPSRFSGSGSGTEFTLTISSLQPEDFATYYCQQYNGYPLTFGQGTKLEIKRTVAAPSVFIFPPSDEQLKSGTASVVCLLNNFYPREAKVQWKVDNALQSGNSQESVTEQDSKDSTYSLSSTLTLSKADYEKHKVYACEVTHQGLSSPVTKSFNRGEC
notes: PD-L1 x 4-1BB bispecific; the 4-1BB scFv stands at the N-terminus of each heavy chain of the PD-L1 antibody

EC50 [14]: 0.0723 nM
Kd [15]: 146 nM
koff [15]: 0.00409 s⁻¹
kon [15]: 28000 M⁻¹ s⁻¹
B5: P4B-3 (bispecific antibody, human IgG1, kappa, L234A L235A)
heavy: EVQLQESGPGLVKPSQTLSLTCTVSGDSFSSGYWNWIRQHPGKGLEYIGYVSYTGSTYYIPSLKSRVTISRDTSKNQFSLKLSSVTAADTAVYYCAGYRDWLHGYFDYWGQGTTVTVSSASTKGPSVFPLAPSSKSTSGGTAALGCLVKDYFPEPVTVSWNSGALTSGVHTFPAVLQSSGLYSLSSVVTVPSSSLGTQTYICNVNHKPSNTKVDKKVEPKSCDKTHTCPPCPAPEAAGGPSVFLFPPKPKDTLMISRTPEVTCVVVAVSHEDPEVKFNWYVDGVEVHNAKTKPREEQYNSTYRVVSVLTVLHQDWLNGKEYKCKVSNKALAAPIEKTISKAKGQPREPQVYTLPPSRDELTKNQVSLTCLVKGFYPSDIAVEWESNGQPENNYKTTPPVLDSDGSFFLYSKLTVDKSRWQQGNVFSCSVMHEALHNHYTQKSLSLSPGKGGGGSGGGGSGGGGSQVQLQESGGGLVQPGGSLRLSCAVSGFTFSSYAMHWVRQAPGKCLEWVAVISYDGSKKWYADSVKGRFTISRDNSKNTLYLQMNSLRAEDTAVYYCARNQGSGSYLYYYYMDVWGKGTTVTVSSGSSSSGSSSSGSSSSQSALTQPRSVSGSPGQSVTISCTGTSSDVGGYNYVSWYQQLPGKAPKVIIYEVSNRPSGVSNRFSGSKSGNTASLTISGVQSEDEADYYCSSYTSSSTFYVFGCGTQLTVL
light: B4 light
notes: PD-L1 x 4-1BB bispecific; the 4-1BB scFv stands at the C-terminus of each heavy chain of the PD-L1 antibody

EC50, NFκB-luciferase reporter (RLUs) in HEK293-NFκB-Luc-4-1BB cells, without crosslink [16]: 32.3 nM
EC50, NFκB-luciferase reporter (RLUs) in HEK293-NFκB-Luc-4-1BB cells, without crosslink [8]: 34 nM
EC50, NFκB-luciferase reporter (RLUs) in HEK293-NFκB-Luc-4-1BB cells, without crosslink [13]: 26.8 nM
B6: Urelumab (antibody, human IgG4 S228P, kappa, V domains shown)
VH: QVQLQQWGAGLLKPSETLSLTCAVYGGSFSGYYWSWIRQSPEKGLEWIGEINHGGYVTYNPSLESRVTISVDTSKNQFSLKLSSVTAADTAVYYCARDYGPGNYDWYFDLWGRGTLVTVSS
VL: EIVLTQSPATLSLSPGERATLSCRASQSVSSYLAWYQQKPGQAPRLLIYDASNRATGIPARFSGSGSGTDFTLTISSLEPEDFAVYYCQQRSNWPPALTFCGGTKVEIKR

EC50 [17]: 1.27 nM
EC50, NFκB-luciferase reporter (RLUs) in HEK293-NFκB-Luc-4-1BB cells, without crosslink [16]: 106 nM
binding result [3]: no binding (tested: 500 ng/mL)
binding result [4]: no binding (tested: 500 ng/mL)
binding result [5]: no binding (tested: 500 ng/mL)
binding result [6]: no binding (tested: 500 ng/mL)
binding result [7]: no binding (tested: 500 ng/mL)
EC50, NFκB-luciferase reporter (RLUs) in HEK293-NFκB-Luc-4-1BB cells, with crosslink (goat anti-human IgG) [18]: 10.6 nM
B7: 41BB-13-IgG2 (antibody, V domains shown)
VH: EVQLVETGVEVKKPGASVKVSCKASGYTFTSYYMHWVRQAPGQGLEWMGIINPSGGSTSYAQKFQGRVTMTRDTSTSTAYMELSSLRSEDTAVYYCARDLGEGYDFWSGYYTPSGAFDIWGKGTMVTVSS
VL: QSALTQPASVSGSPGQSITISCTGTSSDVGGYNYVSWYQQRPGKAPKLIIYDVTTRPSGVSNRFSGSKSGTTASLTISGLQAEDEADYYCSSYTSYSTWVFGGGTKLTVLG
notes: Full antibody, IgG2 / lambda

— patent US20210107982A1 (NANJING LEADS BIOLABS, published 2021)
